1 substance from patent US20060029546A1, “Materials and methods for identifying anti-schizophrenic agents” (deCODE Genetics, Inc., priority 2004, published 2006) can be followed below.

The target in this experiment is ErbB4 (full-length, expressed in mammalian cells) (human) (UniProt Q15303). Nature of the experiment: cell-based or functional assay.
Sequence of ErbB4 (full-length, expressed in mammalian cells) (human) (Q15303 26-1308 limits assumed): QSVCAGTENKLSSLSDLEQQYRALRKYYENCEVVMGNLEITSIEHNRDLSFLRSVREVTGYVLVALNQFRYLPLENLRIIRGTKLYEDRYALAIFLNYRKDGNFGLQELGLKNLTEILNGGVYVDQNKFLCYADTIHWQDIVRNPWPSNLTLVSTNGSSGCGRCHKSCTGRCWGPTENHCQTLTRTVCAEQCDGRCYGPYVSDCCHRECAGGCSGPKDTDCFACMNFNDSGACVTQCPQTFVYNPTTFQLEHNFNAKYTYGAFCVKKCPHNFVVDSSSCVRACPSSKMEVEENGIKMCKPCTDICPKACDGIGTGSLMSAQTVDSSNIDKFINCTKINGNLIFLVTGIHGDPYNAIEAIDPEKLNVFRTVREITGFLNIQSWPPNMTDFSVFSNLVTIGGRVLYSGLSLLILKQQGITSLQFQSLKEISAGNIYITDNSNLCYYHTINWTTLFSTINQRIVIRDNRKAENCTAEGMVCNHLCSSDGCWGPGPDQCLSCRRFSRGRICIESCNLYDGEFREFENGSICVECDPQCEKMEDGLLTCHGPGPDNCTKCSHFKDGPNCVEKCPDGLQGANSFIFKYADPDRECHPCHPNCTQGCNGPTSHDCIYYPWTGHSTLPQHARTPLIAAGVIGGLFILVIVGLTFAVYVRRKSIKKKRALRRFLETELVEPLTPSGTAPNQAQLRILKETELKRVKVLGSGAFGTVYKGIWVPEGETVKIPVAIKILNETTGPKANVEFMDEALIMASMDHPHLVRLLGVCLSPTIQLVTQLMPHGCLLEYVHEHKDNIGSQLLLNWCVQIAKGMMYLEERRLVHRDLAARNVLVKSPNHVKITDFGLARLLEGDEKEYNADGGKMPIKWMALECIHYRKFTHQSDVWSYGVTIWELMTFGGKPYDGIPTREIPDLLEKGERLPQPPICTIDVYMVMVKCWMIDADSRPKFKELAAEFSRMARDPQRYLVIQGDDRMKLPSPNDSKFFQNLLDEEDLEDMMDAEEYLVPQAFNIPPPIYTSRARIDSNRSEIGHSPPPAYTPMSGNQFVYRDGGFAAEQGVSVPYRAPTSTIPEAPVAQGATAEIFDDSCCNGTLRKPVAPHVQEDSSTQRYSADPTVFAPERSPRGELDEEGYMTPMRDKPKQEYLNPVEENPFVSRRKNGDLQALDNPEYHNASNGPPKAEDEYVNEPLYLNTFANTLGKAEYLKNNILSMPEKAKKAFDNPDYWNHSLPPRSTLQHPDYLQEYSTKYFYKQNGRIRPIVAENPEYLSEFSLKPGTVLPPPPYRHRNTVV

The substance “NRG1 (recombinant human HRG-αEGF domain; R&D Systems) (from UniProt Q02297 177-241) (ligand)” displayed an NRG1 EC50, luciferase reporter gene under a promoter containing a serum response element (SRE), CHO-K1 cells expressing ErbB4 with or without Fyn of 1 nM.
